Experimental data taken from patent US20160376632A1, “KINASE ACTIVITY DETECTION METHODS” (REGENTS OF THE UNIVERSITY OF MINNESOTA, priority 2014, published 2016).
*1 amine or outer side, *2 acyl side, *3 side chain or, on linkers, in order; H or OH if unused. [ ]: non-standard residue; d: D form. The star is where a group is joined. Kb = biotinyl-L-lysine, O=C(CCCC[C@@H]1SC[C@@H]2NC(=O)N[C@@H]21)NCCCC[C@H](N[*:1])C(=O)[*:2]; 5FAM = O=C1OC2(c3ccc(O)cc3Oc3cc(O)ccc32)c2ccc(C(=O)*)cc21; Ahx = NCCCCCC(=O)O

Legend:
[1] = Determination of LRET distance from Tb3+ luminescence lifetimes; assay type: physicochemical; settings: for Energy Transfer: E from lifetimes; for Ro: Förster distance; for τDA: Tb3+ luminescence lifetime of donor in presence of acceptor fluorophore; for τD: Tb3+ luminescence lifetime of donor without acceptor fluorophore; for R: estimated distance between Tb3+ and fluorophore
Source text: The Tb^3+ luminescence lifetimes of the biosensors in their fluorophore conjugated and unconjugated forms were used to characterize the energy transfer and LRET parameters for each sensor (FIGS. 12A, 12B and 12C). LRET follows the same principles as FRET and can have the same theory applied to calculate the distance between the fluorophore acceptor and the terbium-peptide complex donor pair. The fundamental concept of Förster theory is resonance energy transfer is proportional to
where the percentage of energy transfer, E, can be determined from the lifetime measurements of the donor in the absence of the acceptor (peptide-terbium complex (donor) without the conjugated fluorophore (acceptor)) and the donor in the presence of the acceptor.
R0 the Förster distance is determined for each acceptor/donor pair and d
The luminescence decay rates peptide biosensor-Tb^3+ complexes with and without fluorophore conjugation are illustrated in FIG. 12A pSAStide-AF488:Tb^3+, FIG. 12B pSAStide-Cy5 and FIG. 12C 5-FAM-pSFAStide-A. Data represent the average±SEM of three individual replicates.

Lyn = Lyn (Homo sapiens, UniProt P07948); assay: ELISA-based chemifluorescent detection of substrate phosphorylation, Lyn; assay type: biochemical; settings: anti-phosphotyrosine 4G10, Amplex Red
Experimental: (§1) Phosphorylation of SAStide and SFAStide-A were detected using a chemifluorescent ELISA-based assay (Lipchik et al. J Am Chem. Soc 2015, 137, 2484) in which the reaction mixture was quenched using EDTA and incubated in a 96-well neutravidin coated-plate to allow for affinity capture of the biotinylated substrates individually. The total amount of peptide in the quenched reaction mixture applied to each well was 37.5 pmol, which ensured that each well was saturated with peptide (15 pmol binding capacity) for analysis. The captured peptide was then incubated an anti-phosphotyrosine primary antibody (4G10) followed by a horseradish peroxidase-conjugated secondary antibody. Chemifluorescent detection was accomplished by incubating each well with Amplex Red reagent and hydrogen peroxide in phosphate buffer, which gave a fluorescent signal proportional to the amount of horseradish peroxidase-conjugated antibody in each well, and thus reports the degree of phosphotyrosine present.
(§2) The Validation of in vitro specificity of SAStide-Cy5 and 5-FAM-SFAStide-A using ELISA-based chemifluorescence is illustrated in FIG. 14. […] Aliquots were removed at designated time points, quenched with EDTA and alongside the TR-LRET detection as described in FIGS. 3A-F in the main text, the amount of phosphorylated substrate was also measured using ELISA-based detection.

Syk = target: T1, Syk (Homo sapiens, UniProt P43405); assay: ELISA-based chemifluorescent detection of substrate phosphorylation, Syk; assay type: biochemical; settings: anti-phosphotyrosine 4G10, Amplex Red
T1 construct: EGFP (C)
Experimental: as §1, §2

Lyn, sequence (P07948 whole entry, species assumed): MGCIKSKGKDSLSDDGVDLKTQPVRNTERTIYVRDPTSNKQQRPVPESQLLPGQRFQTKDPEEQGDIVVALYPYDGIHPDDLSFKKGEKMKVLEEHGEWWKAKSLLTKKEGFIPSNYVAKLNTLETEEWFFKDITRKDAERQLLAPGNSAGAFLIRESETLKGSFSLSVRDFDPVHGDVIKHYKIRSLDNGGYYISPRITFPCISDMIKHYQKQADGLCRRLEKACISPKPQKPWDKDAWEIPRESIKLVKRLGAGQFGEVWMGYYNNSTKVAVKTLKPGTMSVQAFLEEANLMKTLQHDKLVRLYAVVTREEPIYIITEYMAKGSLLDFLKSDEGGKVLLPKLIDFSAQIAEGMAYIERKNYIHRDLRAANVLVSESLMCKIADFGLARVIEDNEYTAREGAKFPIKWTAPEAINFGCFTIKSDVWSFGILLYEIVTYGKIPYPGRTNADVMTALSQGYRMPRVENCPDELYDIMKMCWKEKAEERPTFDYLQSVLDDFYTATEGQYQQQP

| Substance | J [1] | Quantum Yield [1] | Energy Transfer [1] | Ro [1] [Å] | τDA [1] [ms] | τD [1] [ms] | R [1] [Å] | phosphorylation of the substrate by Lyn in vitro (Lyn) | phosphorylation of the substrate by Syk in vitro (Syk) |
| --- | --- | --- | --- | --- | --- | --- | --- | --- | --- |
| 5-FAM-Ahx-GGEEDEDIYEELDEPGGKbGG ({5FAM-Ahx}-GGEEDEDIYEELDEPGG[Kb]GG-NH2) [5-FAM-SFAStide-A, Src-family kinase peptide biosensor labelled with 5-carboxyfluorescein] | 9.62 × 10^14 M^−1 cm^−1 nm^4 | 0.21 | 0.89 | 56.0 | 0.071 | 0.64 | 39.5 | phosphorylated |  |
| GGDEEDYEEPDEPGGCCy5GG [SAStide-Cy5] | 5.4 × 10^13 M^−1 cm^−1 nm^4 | 0.34 | 0.88 | 55.1 | 0.088 | 0.72 | 39.5 |  | phosphorylated |
